US20220291209, “MOLECULAR TARGET IN CANCER” (The Regents of the University of California, published 2022)

How the values were obtained:
[1] = biological target: T1, MSI2 (Musashi-2) (UniProt Q96DH6 Q96DH6:1-328); assay: competition; displaces NUMB-Biotin RNA from MSI2; titrated from 1000 nM; IC50 only in figure; settings: tags: His tag, LS Bio G2396
[2] = biological target: T2, U1A (UniProt P09012 P09012:1-282); assay: competition; displaces Target-Biotin RNA from U1A; titrated from 1000 nM; IC50 only in figure; settings: tags: His tag, LS Bio G19194-10
T2 sequence (P09012 whole entry, one chain of several): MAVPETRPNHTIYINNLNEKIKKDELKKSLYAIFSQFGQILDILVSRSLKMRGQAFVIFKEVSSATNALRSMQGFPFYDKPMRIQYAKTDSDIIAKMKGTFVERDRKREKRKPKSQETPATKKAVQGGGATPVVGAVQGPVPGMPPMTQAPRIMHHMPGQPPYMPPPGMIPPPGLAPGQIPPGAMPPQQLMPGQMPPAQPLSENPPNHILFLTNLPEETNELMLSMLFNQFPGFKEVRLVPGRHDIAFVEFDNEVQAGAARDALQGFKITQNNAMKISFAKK

[3] = biological target: T1, MSI2 (Musashi-2); assay: TR-FRET/HTRF; 5 nM MSI2, 1.25 nM RNA; 150 mM NaCl, 25 mM HEPES pH 7.3, 1 mM DTT, 0.05% pluronic F-127, room temperature; settings: tags: His tag, LS Bio G2396; named Biotin5')
[4] = biological target: T2, U1A; assay: TR-FRET/HTRF; 5 nM U1A, 1.25 nM RNA; 150 mM NaCl, 25 mM HEPES pH 7.3, 1 mM DTT, 0.05% pluronic F-127, room temperature; settings: tags: His tag, LS Bio G19194-10; named Biotin5')

T1 sequence (Q96DH6 whole entry, one chain of several): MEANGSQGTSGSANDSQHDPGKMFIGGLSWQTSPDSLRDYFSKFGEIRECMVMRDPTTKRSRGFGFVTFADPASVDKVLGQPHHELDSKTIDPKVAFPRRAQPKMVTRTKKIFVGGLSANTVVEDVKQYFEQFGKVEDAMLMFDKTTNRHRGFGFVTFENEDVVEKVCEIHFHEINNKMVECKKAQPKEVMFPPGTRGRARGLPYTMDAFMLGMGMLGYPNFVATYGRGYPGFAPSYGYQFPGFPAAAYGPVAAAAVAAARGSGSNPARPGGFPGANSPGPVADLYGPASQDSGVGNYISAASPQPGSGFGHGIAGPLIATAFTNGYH

B1: NUMB-CTRL RNA (unlabelled) (ssRNA)
RNA: UAGGUAGUAGUUUUA
binding result [1]: binds

B2: U1A Target-CTRL RNA (unlabelled) (ssRNA)
RNA: AUUGCACUCCUUUUA
binding result [2]: binds

B3: NUMB-Biotin RNA probe (ssRNA)
RNA: UAGGUAGUAGUUUUA
binding result [3]: binds

B4: U1A Target-Biotin RNA probe (ssRNA)
RNA: AUUGCACUCCUUUUA
binding result [4]: binds
